Molecular target: T1, Sgo1^1–150-His6-MBP (X. laevis, UniProt Q4KLP8 1-150)
T1 sequence (looked up): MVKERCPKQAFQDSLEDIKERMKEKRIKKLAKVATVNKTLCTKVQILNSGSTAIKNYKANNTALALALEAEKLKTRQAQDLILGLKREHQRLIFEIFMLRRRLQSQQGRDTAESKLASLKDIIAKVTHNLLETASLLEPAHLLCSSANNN
Assay: supernatant depletion

Kd: 10 ± 1.6 µM
B1: GST-Borealin-2^216–296 (domain or fragment)
chain: not shown
